Read-outs that look alike come from different tables or passages of the source. Blank lines part the entries; values can stand above or below the binder they belong to.
Assays:
human Bcl-xL ΔC24 [1] = biological target: T1, human Bcl-xL ΔC24 (human, UniProt Q07817 1-209); experiment: Biacore solution competition against immobilised mouse wtBimBH3
T1 construct: Expressed as GST fusion and cleaved off the glutathione column; also called hBcl-xL ΔC24
Text: (§1) The baseline response (control channel) was subtracted to obtain the absolute binding response. […] Theoretically, IC50=[A]/2+KD, where [A] is the analyte concentration.
(§2) To assess if other BH3 peptides bind pro-survival proteins similarly, we directly compared their binding affinities in solution using a competitive binding assay. […] As the IC50 values reflect relative binding affinities (see Experimental Procedures), we used this assay to compare the binding affinities of eight BH3 peptides (Table 3) to the five pro-survival proteins.

[2] = biological target: T2, human Bcl-w ΔC29 (C29S A128E) (human, UniProt Q92843 1-164); experiment: as above
T2 construct: range 1-164; residues 1-209), which are those of Bcl-xL; also called hBcl-w
T2 sequence: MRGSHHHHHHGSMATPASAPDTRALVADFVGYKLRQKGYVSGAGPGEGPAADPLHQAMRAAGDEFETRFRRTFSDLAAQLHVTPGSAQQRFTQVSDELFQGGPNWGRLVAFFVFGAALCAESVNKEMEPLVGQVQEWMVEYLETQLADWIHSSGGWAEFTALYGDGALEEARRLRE
Text: as §1, §2

human Bcl-xL ΔC24 [3] = biological target: T1, human Bcl-xL ΔC24; experiment: as above; remark: listed apart in the source
Text: FIG. 1 is a graphical representation showing competitive binding assays. […] (C) Solution competition assay. […] The line (at 430 s) indicates the response used for calculating the IC50. […] (Irregular responses after 500 s are due to washing the chips after analyte dissociation). Color reproductions are available from the patentees on request.
The baseline response (control channel) was subtracted to obtain the absolute binding response.

human Bcl-2 ΔC22 [4] = biological target: T3, human Bcl-2 ΔC22 (human, UniProt P10415 1-217); experiment: as above
T3 construct: Recombinant, bacterial, N-terminal HexaHis fusion; hydrophobic C-terminus removed; also called hBcl-2
Text: as §1, §2

human Bcl-xL ΔC24 [5] = biological target: T1, human Bcl-xL ΔC24; experiment: solution competition on Biacore
[6] = biological target: T2, human Bcl-w ΔC29 (C29S A128E); experiment: solution competition on Biacore
human Bcl-2 ΔC22 [7] = biological target: T3, human Bcl-2 ΔC22; experiment: solution competition on Biacore
human Bcl-xL ΔC24 [8] = biological target: T1, human Bcl-xL ΔC24; experiment: solution competition on Biacore, immobilised m wtBimBH3
Text: as §1

human Bcl-xL ΔC24 [9] = biological target: T1, human Bcl-xL ΔC24; experiment: SPR direct binding, protein over immobilised NoxaBH3
Experimental: Affinity measurements were performed at room temperature on a Biacore 3000 biosensor (Biacore) with HBS (10 mM HEPES pH 7.2, 150 mM NaCl, 3.4 mM EDTA, 0.005% Tween 20) as the running buffer. […] Residual bound proteins were desorbed with 50 mM NaOH or 6 M GuHCl (pH 7.2), followed by two washes with running buffer. Binding kinetics were derived from sensorgrams, following subtraction of baseline responses, using BIA evaluation software (version 3, Biacore) (Wilson-Annan et al., Supra).

[10] = biological target: T2, human Bcl-w ΔC29 (C29S A128E); experiment: Biacore solution competition against immobilised mouse wtBimBH3; remark: listed apart in the source
Text: as §1

human Bcl-2 ΔC22 [11] = biological target: T3, human Bcl-2 ΔC22; experiment: as above; remark: listed apart in the source
Text: as §1

human Bcl-xL ΔC24 [12] = biological target: T1, human Bcl-xL ΔC24; experiment: solution competition on Biacore (IC50 ratio)
human Bcl-xL ΔC24 [13] = biological target: T1, human Bcl-xL ΔC24; experiment: solution competition on Biacore (FIG. 9C)
Text: as §1

[14] = biological target: T2, human Bcl-w ΔC29 (C29S A128E); experiment: solution competition on Biacore (FIG. 9C)
Text: as §1

[15] = biological target: T4, FLAG-tagged mouse Mcl-1 (full-length) (mouse, UniProt P97287 1-331); experiment: co-immunoprecipitation from 293T lysates, 35S fluorography (D) and immunoblot of the same filters (E) [E]
T4 construct: whole, on cells; Full-length, expressed in 293T cells, precipitated from lysates; also called FLAG-Mcl-1; Mcl-1 (in cells)
Text: (§3) Equivalent ³⁵S-labeled lysates harvested from 293T cells were immunoprecipitated with antibodies to the HA, FLAG (FL) or control (C) tags.
(§4) The maintenance, transfection and metabolic labeling of the human embryonic kidney (HEK) 293T cells with ³⁵S-methionine/cysteine (NEN) as well as co-immunoprecipitation have been described (Huang et al., Supra; Moriishi et al., Proc Natl Acad Sci USA 96:9683-9688, 1999; O'Conner et al., Supra). Briefly, equivalent TCA-precipitable lysates were immunoprecipiated using the mouse monoclonal antibodies to HA (HA.11; CRP), FLAG (M2; Sigma) and control Glu-Glu (CRP) tags. The proteins were resolved by SDS:PAGE, transferred onto nitrocellulose membranes and detected by fluorography (Amplify; Amersham Biosciences).

[16] = biological target: T5, FLAG-tagged human Bcl-xL (full-length) (human, UniProt Q07817 1-233); experiment: co-immunoprecipitation from 293T lysates, 35S fluorography (F) and immunoblot of the same filters (G) [G]
T5 construct: whole, on cells; Full-length, expressed in 293T cells, precipitated from lysates; also called FLAG-Bcl-xL; Bcl-xL (in cells)
Text: as §3, §4

[17] = biological target: T6, FLAG-tagged human Bcl-2 (full-length) (human, UniProt P10415 1-239); experiment: as above
T6 construct: whole, on cells; Full-length, expressed in 293T cells, precipitated from lysates; also called FLAG-Bcl-2; Bcl-2 (in cells)
Text: as §3, §4

T1 sequence (Q07817 other isoform, or with tags, fused parts or gaps mutant limits assumed): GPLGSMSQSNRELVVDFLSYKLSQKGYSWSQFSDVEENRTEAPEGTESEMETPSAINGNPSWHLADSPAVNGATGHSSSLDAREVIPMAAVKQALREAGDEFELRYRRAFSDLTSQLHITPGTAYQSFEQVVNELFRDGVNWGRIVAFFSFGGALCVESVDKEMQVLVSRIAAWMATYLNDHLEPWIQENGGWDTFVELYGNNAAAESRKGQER
T3 sequence (P10415 other isoform, or with tags, fused parts or gaps mutant limits assumed): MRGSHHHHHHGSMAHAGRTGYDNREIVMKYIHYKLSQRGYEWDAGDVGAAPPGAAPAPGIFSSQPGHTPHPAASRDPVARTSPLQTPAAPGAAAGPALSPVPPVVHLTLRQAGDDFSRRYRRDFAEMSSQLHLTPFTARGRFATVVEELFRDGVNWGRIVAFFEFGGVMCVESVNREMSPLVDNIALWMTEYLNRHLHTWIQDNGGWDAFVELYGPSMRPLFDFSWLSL
T5 sequence (Q07817 other isoform, or with tags, fused parts or gaps): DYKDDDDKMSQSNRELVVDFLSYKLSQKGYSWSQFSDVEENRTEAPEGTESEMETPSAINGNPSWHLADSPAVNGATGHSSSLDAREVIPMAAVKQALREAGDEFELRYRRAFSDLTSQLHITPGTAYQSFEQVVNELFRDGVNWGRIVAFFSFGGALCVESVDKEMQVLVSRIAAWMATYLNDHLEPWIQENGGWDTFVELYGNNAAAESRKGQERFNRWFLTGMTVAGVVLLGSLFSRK
T4 sequence (P97287 other isoform, or with tags, fused parts or gaps): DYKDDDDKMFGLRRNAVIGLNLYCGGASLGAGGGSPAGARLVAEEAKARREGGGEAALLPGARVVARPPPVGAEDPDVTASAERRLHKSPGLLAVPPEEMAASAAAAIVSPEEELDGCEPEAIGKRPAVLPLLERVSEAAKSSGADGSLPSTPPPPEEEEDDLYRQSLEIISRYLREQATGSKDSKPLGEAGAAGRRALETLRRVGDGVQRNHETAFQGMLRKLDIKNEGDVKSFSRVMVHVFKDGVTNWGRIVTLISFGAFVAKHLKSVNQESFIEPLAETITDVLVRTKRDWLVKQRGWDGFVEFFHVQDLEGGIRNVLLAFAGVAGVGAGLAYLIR
T6 sequence (P10415 other isoform, or with tags, fused parts or gaps): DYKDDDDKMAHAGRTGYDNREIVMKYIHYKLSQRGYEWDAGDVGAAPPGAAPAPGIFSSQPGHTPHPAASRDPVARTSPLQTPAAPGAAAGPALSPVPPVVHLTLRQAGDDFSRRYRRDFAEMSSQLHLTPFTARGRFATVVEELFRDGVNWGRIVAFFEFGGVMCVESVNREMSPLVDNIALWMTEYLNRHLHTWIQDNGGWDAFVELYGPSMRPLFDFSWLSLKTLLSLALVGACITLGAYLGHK

IC50 (human Bcl-xL ΔC24 [1]): 43 nM | IC50 [2]: 12 nM | IC50 (read off the curve) (human Bcl-xL ΔC24 [3]): ~40 nM
Binder: MEGSDALALRLACIGDEMDVSLRAP (also called BikBH3; hBik) [Bik (51-75) BH3 peptide, human]

IC50 (human Bcl-xL ΔC24 [1]): 9.7 nM | IC50 [2]: 9.8 nM | IC50 (human Bcl-2 ΔC22 [4]): 3 nM
Binder: HRAEVQIARKLQCIADQFHRLHTQ (also called BmfBH3) [m Bmf (128-151) BH3 peptide]

binding result (human Bcl-xL ΔC24 [5]): no binding | binding result [6]: no binding | binding result (human Bcl-2 ΔC22 [7]): no binding
Binder: RAELPPEFAAQLRKIGDKVYCTWSAP (also called mouse Noxa BH3 peptide 1) [m Noxa1 (16-41) BH3 peptide]

IC50 (human Bcl-xL ΔC24 [8]): > 100000 nM | IC50 (human Bcl-xL ΔC24 [1]): > 100000 nM | IC50 [2]: > 100000 nM | IC50 (human Bcl-2 ΔC22 [4]): > 100000 nM | binding result (human Bcl-xL ΔC24 [9]): no binding
Binder: PAELEVECATQLRRFGDKLNFRQKLL (also called NoxaBH3; wt NoxaBH3) [Noxa (18-43) BH3 peptide, human]

binding result [10]: binds | IC50 (human Bcl-2 ΔC22 [11]): > 100000 nM | IC50 (human Bcl-xL ΔC24 [8]): 5800 nM | fold tighter than the wild-type peptide (human Bcl-xL ΔC24 [12]): ≥ 17 fold | fold increase of binding against wt NoxaBH3 (human Bcl-xL ΔC24 [13]): > 20 fold
Binder: PAELEVECATQLRRFGDELNFRQKLL (also called Noxa m1; K35E) [Noxa (18-43) mt1]

binding result [10]: binds | IC50 (human Bcl-2 ΔC22 [11]): > 100000 nM | IC50 (human Bcl-xL ΔC24 [8]): 1100 nM | fold tighter than wild type (human Bcl-xL ΔC24 [12]): ≥ 90 fold | fold increase of binding against wt NoxaBH3 (human Bcl-xL ΔC24 [13]): > 100 fold
Binder: PAELEVECATQLRRIGDKLNFRQKLL (also called Noxa m2; F32I) [Noxa (18-43) mt2]

binding result (human Bcl-2 ΔC22 [11]): binds | IC50 (human Bcl-xL ΔC24 [8]): 110 nM | IC50 [14]: 410 nM | IC50 (human Bcl-xL ΔC24 [5]): 100 nM
B1: Noxa (18-43) mt3 (peptide)
peptide: PAELEVECATQLRRIGDELNFRQKLL
notes: also called Noxa m3 (peptide); double mutant K35E F32I

binding result [15]: no binding
B2: HA-tagged full-length mouse Bad (other)
chain: YPYDVPDYAMGTPKQPSLAPAHALGLRKSDPGIRSLGSDAGGRRWRPAAQSMFQIPEFEPSEQEDASATDRGLGPSLTEDQPGPYLAPGLLGSNIHQQGRAATNSHHGGAGAMETRSRHSSYPAGTEEDEGMEEELSPFRGRSRSAPPNLWAAQRYGRELRRMSDEFEGSFKGLPRPKSAGTATQMRQSAGWTRIIQSWWDRNLGKGGSTPSQ
notes: whole, on cells; also called HA-Bad; Bad (in cells)

IC50 (human Bcl-xL ΔC24 [1]): 3.7 nM | IC50 [2]: 49 nM | IC50 (human Bcl-2 ΔC22 [4]): 320 nM
B3: Hrk (26-51) BH3 peptide, human (peptide)
peptide: not shown
notes: also called HrkBH3

IC50 (human Bcl-xL ΔC24 [1]): 82 nM | IC50 [2]: 40 nM | IC50 (human Bcl-2 ΔC22 [4]): 6800 nM
Binder: DIIRNIARHLAQVGDSMDRSIPPG (also called BidBH3) [Bid (81-104) BH3 peptide, human]

IC50 (human Bcl-xL ΔC24 [1]): 5.3 nM | IC50 [2]: 30 nM | IC50 (human Bcl-2 ΔC22 [4]): 16 nM
Binder: NLWAAQRYGRELRRMSDEFVDSFKKG (also called BadBH3) [Bad (103-128) BH3 peptide, human]

binding result [16]: no binding | binding result [17]: no binding
B4: HA-tagged full-length mouse Noxa (other)
chain: YPYDVPDYAMPGRKARRNAPVNPTRAELPPEFAAQLRKIGDKVYCTWSAPDITVVLAQMPGKSQKSRMRSPSPTRVPADLKDECAQLRRIGDKVNLRQKLLNLISKLFNLVT
notes: whole, on cells; also called HA-Noxa; Noxa (full-length mouse Noxa bearing two BH3s)

binding result (human Bcl-xL ΔC24 [5]): no binding | binding result [6]: no binding | binding result (human Bcl-2 ΔC22 [7]): no binding
B5: m Noxa2 (68-93) BH3 peptide (peptide)
peptide: PADLKDECAQLRRIGDKVNLRQKLLN
notes: also called mNoxa B; mouse Noxa BH3 peptide 2

From patent US20080027145A1 (published 2008)
